Test results reported in PMC10150487, “m^6A readers ECT2/ECT3/ECT4 enhance mRNA stability through direct recruitment of the poly(A) binding proteins in Arabidopsis” (Genome Biology, 2023).

T1: GST-tagged full-length ECT2 (Arabidopsis thaliana, UniProt Q9LJE5 1-667)
T1 construct: also called GST-ECT2; Evolutionarily conserved C-terminal region 2
T1 sequence (looked up): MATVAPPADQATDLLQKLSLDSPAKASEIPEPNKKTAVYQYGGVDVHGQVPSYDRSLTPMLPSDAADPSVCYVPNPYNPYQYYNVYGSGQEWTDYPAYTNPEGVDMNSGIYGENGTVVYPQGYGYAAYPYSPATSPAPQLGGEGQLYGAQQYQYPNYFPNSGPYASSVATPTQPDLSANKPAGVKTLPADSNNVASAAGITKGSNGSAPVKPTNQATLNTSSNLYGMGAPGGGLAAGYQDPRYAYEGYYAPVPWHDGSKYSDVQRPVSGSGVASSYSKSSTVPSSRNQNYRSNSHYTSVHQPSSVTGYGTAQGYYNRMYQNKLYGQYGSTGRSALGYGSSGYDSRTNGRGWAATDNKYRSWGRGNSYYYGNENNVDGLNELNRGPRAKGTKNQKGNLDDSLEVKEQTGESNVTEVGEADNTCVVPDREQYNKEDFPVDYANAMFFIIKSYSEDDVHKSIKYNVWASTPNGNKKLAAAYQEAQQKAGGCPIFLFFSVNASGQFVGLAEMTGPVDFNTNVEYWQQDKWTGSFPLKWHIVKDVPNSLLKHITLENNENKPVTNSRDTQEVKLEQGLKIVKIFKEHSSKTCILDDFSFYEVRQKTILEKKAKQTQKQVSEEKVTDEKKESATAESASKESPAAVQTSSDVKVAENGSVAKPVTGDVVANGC


Legend:
[1] = biological target: T1, GST-tagged full-length ECT2; assay: pull-down; GST pull-down: 100 pmol pre-cleared MBP-PAB2 or MBP-PAB4 mixed with 100 pmol GST or GST-ECT2 (full length or fragments) and glutathione magnetic agarose beads, 2 h at 4 °C, IPP buffer (150 mM NaCl, 0.1% NP-40, 10 mM Tris pH 7.4, 0.5 mM DTT); immunoblot with anti-MBP and anti-GST; details: both partners purified
[2] = biological target: T1, GST-tagged full-length ECT2; assay: pull-down; GST pull-down: purified MBP-ECT3 and SUMO-ECT4 incubated with GST-ECT2 or GST alone, GST magnetic beads, immunoblot with anti-GST, anti-MBP and anti-SUMO; details: both partners purified

binding result [1] | binding result [2] | Binder
binds | – | MBP-tagged PAB4 (natural protein, Arabidopsis thaliana, UniProt O22173 1-662, looked up, also called MBP-PAB4; source: Escherichia coli BL-21 Gold, purified (amylose resin)) MAQVQAPSSHSPPPPAVVNDGAATASATPGIGVGGGGDGVTHGALCSLYVGDLDFNVTDSQLYDYFTEVCQVVSVRVCRDAATNTSLGYGYVNYSNTDDAEKAMQKLNYSYLNGKMIRITYSSRDSSARRSGVGNLFVKNLDKSVDNKTLHEAFSGCGTIVSCKVATDHMGQSRGYGFVQFDTEDSAKNAIEKLNGKVLNDKQIFVGPFLRKEERESAADKMKFTNVYVKNLSEATTDDELKTTFGQYGSISSAVVMRDGDGKSRCFGFVNFENPEDAARAVEALNGKKFDDKEWYVGKAQKKSERELELSRRYEQGSSDGGNKFDGLNLYVKNLDDTVTDEKLRELFAEFGTITSCKVMRDPSGTSKGSGFVAFSAASEASRVLNEMNGKMVGGKPLYVALAQRKEERRAKLQAQFSQMRPAFIPGVGPRMPIFTGGAPGLGQQIFYGQGPPPIIPHQPGFGYQPQLVPGMRPAFFGGPMMQPGQQGPRPGGRRSGDGPMRHQHQQPMPYMQPQMMPRGRGYRYPSGGRNMPDGPMPGGMVPVAYDMNVMPYSQPMSAGQLATSLANATPAQQRTLLGESLYPLVDQIESEHAAKVTGMLLEMDQTEVLHLLESPEALNAKVSEALDVLRNVNQPSSQGSEGNKSGSPSDLLASLSINDHL
binds | – | MBP-tagged PAB2 (natural protein, Arabidopsis thaliana, UniProt P42731 1-629, looked up, also called MBP-PAB2; source: Escherichia coli BL-21 Gold, purified (amylose resin)) MAQVQLQGQTPNGSTAAVTSAPATSGGATATQFGNTSLYVGDLDFNVTDSQLFDAFGQMGTVVTVRVCRDLVTRRSLGYGYVNFTNPQDAARAIQELNYIPLYGKPIRVMYSHRDPSVRRSGAGNIFIKNLDESIDHKALHDTFSSFGNIVSCKVAVDSSGQSKGYGFVQYANEESAQKAIEKLNGMLLNDKQVYVGPFLRRQERDSTANKTKFTNVYVKNLAESTTDDDLKNAFGEYGKITSAVVMKDGEGKSKGFGFVNFENADDAARAVESLNGHKFDDKEWYVGRAQKKSERETELRVRYEQNLKEAADKFQSSNLYVKNLDPSISDEKLKEIFSPFGTVTSSKVMRDPNGTSKGSGFVAFATPEEATEAMSQLSGKMIESKPLYVAIAQRKEDRRVRLQAQFSQVRPVAMQPSVGPRMPVYPPGGPGIGQQMFYGQAPPAMIPPQPGYGYQQQLVPGMRPGGGPVPSFFMPMVQPQQQRPGGGRRPGGIQHSQQQNPMMQQQMHPRGRMFRYPQGRGGSGDVPPYDMGNNMPLTIGALASNLSNATPEQQRTMLGEVLYPLVEQVEAESAAKVTGMLLEMDQTEVLHLLESPEALKAKVAEAMDVLRSVAAGGATEQLASLNLS
– | binds | maltose-binding protein (MBP)-tagged ECT3 (natural protein, Arabidopsis thaliana, UniProt F4K1Z0 1-495, looked up, also called MBP-ECT3; source: Escherichia coli, purified recombinant protein) MANPDHVSDVLHNLSIDPTTKALAPDSETKLQGAYGGNGNDFLLNDELVEATKIGKPSLLSKDGGVTKDKGSNLKKLGYQSAAYNAKGSYGKGAYAYGYYPPAYQYPRHGYTGSYASGKTNLQYQYLTQQGRSAGNGQSYGGYMDNIYSNYGMCGPYTNGYGYGSYGYDSWKYMPNWYAVNNTYKPRNGYHGYGKENIEGLNEMNRGPRAKGFNSQDGSKVMAVSLKEQRVTETEKLSEDVSLLDPKDYNKIDFPETYTEAKFYVIKSYSEDDIHKSIKYSVWSSTPNGNKKLDASYNEAKQKSDGCPVFLLFSVNTSGQFVGLAEMVGPVDFNKTVEYWQQDKWIGCFPVKWHFVKDIPNSSLRHITLENNENKPVTNSRDTQEVKLEQGIKVIKIFKDHASKTCILDDFEFYENRQKIIQERKSKHLQIKKQTLVANADKGVMSKINLVKPQESTTASEDAAALGVAAEVTKESKVVKETELPVEKNAVATAC
